Data published in PMC7961048 (2021).
Non-standard residues stand in square brackets, D forms with d. No end group written: not given here. *: point of attachment. Biotin = O=C1N[C@H]2[C@H](CS[C@H]2CCCCC(=O)*)N1; pT = C[C@@H](OP(=O)(O)O)[C@H](N)C(=O)O; ttds = NCCCOCCOCCOCCCNC(=O)CCC(=O)*

T1: unfused 14-3-3ε devoid of the flexible C-terminal tail (human)
T1 chain: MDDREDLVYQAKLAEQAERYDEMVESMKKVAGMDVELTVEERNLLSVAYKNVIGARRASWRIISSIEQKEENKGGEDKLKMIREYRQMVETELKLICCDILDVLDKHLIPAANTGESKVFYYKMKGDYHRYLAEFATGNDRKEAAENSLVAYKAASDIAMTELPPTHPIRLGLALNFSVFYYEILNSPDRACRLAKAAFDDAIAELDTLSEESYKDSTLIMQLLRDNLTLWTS

T2: full-length human 14-3-3σ fused to the C terminus of MBP (human, UniProt P31947 1-248)
T2 chain: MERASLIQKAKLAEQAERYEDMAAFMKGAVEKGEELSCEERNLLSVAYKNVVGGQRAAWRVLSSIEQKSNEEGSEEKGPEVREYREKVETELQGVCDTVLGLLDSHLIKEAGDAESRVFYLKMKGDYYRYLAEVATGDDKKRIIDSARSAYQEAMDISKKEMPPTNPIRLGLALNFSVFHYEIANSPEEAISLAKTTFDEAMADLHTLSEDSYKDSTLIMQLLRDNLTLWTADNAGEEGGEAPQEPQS

T3: full-length human 14-3-3γ fused to the C terminus of MBP (human, UniProt P61981 1-247)
T3 chain: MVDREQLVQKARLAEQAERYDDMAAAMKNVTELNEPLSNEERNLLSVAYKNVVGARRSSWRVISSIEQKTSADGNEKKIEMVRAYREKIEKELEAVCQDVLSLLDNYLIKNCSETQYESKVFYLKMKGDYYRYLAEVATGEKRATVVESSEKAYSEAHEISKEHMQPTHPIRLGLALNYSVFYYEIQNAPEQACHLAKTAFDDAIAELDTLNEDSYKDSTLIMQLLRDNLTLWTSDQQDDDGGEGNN

T4: full-length human 14-3-3β fused to the C terminus of MBP (human, UniProt P31946 1-246)
T4 chain: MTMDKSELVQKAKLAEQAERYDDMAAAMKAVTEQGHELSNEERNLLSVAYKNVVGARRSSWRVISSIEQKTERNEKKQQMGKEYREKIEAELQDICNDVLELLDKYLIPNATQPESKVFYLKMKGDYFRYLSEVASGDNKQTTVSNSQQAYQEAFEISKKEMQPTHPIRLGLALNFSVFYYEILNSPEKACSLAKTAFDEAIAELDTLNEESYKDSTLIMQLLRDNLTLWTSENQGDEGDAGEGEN

T5: full-length human 14-3-3τ fused to the C terminus of MBP (human, UniProt P27348 1-245)
T5 chain: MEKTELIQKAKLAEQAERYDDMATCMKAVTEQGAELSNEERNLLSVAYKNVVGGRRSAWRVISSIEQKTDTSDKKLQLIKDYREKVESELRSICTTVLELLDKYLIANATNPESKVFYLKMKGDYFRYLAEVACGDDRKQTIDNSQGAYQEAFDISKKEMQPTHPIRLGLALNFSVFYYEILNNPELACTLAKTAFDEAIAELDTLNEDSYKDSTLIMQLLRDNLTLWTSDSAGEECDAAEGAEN

T6: unfused 14-3-3β devoid of the flexible C-terminal tail (human)
T6 chain: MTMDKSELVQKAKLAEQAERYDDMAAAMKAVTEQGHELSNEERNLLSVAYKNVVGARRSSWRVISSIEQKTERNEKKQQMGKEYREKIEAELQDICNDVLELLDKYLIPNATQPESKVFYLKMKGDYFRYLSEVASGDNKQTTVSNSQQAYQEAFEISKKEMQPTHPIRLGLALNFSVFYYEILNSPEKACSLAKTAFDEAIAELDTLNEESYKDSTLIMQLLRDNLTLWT

T7: full-length human 14-3-3ζ fused to the C terminus of MBP (human, UniProt P63104 1-245)
T7 chain: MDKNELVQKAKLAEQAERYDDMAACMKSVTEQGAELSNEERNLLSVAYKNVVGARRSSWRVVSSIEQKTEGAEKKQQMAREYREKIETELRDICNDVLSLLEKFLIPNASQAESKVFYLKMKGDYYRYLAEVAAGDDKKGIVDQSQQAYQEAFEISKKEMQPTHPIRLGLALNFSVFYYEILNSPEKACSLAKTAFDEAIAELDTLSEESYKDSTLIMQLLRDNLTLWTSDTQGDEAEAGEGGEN

T8: full-length human 14-3-3η fused to the C terminus of MBP (human, UniProt Q04917 1-246)
T8 chain: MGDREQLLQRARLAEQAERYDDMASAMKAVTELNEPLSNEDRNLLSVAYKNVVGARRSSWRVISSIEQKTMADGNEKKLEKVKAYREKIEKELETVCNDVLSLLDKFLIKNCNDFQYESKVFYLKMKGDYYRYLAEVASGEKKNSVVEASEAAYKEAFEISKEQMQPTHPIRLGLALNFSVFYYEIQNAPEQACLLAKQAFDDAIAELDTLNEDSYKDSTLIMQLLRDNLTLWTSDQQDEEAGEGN


Legend:
[1] = target: T1, unfused 14-3-3ε devoid of the flexible …; test: FP
[2] = target: T2, full-length human 14-3-3σ fused to the …; test: FP
[3] = target: T3, full-length human 14-3-3γ fused to the …; test: FP
[4] = target: T4, full-length human 14-3-3β fused to the …; test: FP
[5] = target: T5, full-length human 14-3-3τ fused to the …; test: FP
[6] = target: T6, unfused 14-3-3β devoid of the flexible …; test: FP
[7] = target: T7, full-length human 14-3-3ζ fused to the …; test: FP; with FSC
[8] = target: T8, full-length human 14-3-3η fused to the …; test: FP

Binder	Kd [1] [µM]	Kd [2] [µM]	Kd [3] [µM]	Kd [4] [µM]	Kd [5] [µM]	Kd [6] [µM]	Kd [7] [µM]	Kd [8] [µM]
{Biotin-ttds}-RLQRRRE[pT]QV [HPV18 E6 phospho-PBM peptide p18E6]	66.2	139	11.1	42.2	37.8	42.3	37.3	–
{Biotin-ttds}-SSRTRRE[pT]QL [HPV16 E6 phospho-PBM peptide p16E6]	186	–	37.2	159	144	148	–	80.5
